Legend:
U937 monocytes = test: TNFα RNA upregulation in U937 monocytes (RT-PCR); format: cell-based, human; settings: 1 h stimulation; 100 μg ml^−1 amyloid endostatin, 260 μg ml^−1 Hb-AGE; LPS 1 μg ml^−1; normalized to 18S
Protocol: U937 monocytes were cultured in six-wells plates. Cells were stimulated with buffer (negative control), 1 μg ml^−1 LPS (positive control), 100 μg ml^−1 amyloid endostatin^1,7, 260 μg ml^−1 Hb-AGE and 260 μg ml^−1 control Hb. After 1 h of stimulation, cells were put on ice. After washing RNA was isolated and quantified spectrophotometrically. Normalized amounts of RNA were used for 26 cycli of RT-PCR with human TNFα primer and 18 cycli of RT-PCR with ribosomal 18S primer for normalization purposes. DNA was analyzed on a 2% agarose gel.

Congo red fluorescence = format: physicochemical
Protocol: Background signals from buffer, buffer with Congo red and protein/peptide solution without Congo red were subtracted from corresponding measurements with protein solution incubated with Congo red. Fluorescence was measured in triplicate on a Hitachi F-4500 fluorescence spectrophotometer (Ltd., Tokyo, Japan).
(§1) Formulated protein therapeutics were obtained from the local hospital pharmacy and were used as supplied by the manufacturers. […] Lyophilized therapeutics were dissolved according to the manufacturers recommendations. […] Other protein therapeutics were only kept at 4° C., and assayed for the presence of cross-β structure conformation at shown time points. Enhancement in fluorescence of ThT and Congo red was measured with all formulated protein therapeutics. For this purpose, proteins were diluted to the indicated concentrations. […] Zinc-insulin was diluted tenfold in the activation assay, GH was diluted to a final concentration of 500 μg ml^−1. Activation of factor XII and prekallikrein by the therapeutics was tested in the chromogenic factor XII assay (see above). […] After coating, plates were blocked with Blocking Reagent (Roche Diagnostics, Almere, The Netherlands).
(§2) Protein therapeutics were obtained from the local hospital pharmacy and analyzed within the expiry limits as stated by the manufacturers.

[1] = Thioflavin T fluorescence; format: physicochemical
Protocol: Fluorescence of ThT-protein/peptide adducts was measured as follows. […] Fluorescence was measured at 485 nm upon excitation at 435 nm. Background signals from buffer, buffer with ThT and protein/peptide solution without ThT were subtracted from corresponding measurements with protein solution incubated with ThT. […] Fluorescence was measured in triplicate on a Hitachi F-4500 fluorescence spectrophotometer (Ltd., Tokyo, Japan).
as §1
To prepare structurally altered ovalbumin (OVA) with amyloid cross-β structure conformation, purified OVA (Sigma, A-7641, lot 071k7094) was heated to 85° C. One mg ml^−1 OVA in 67 mM NaPi buffer pH 7.0, 100 mM NaCl, was heated for two cycles in PCR cups in a PTC-200 thermal cycler (MJ Research, Inc., Waltham, Mass., USA). In each cycle, OVA was heated from 30 to 85° C. at a rate of 5° C./min. Native OVA (nOVA) and heat-denatured OVA (dOVA) were tested in the ThT fluorescence assay and in the Plg-activation assay. In the fluorescence assay and in the Plg-activation assay, 25 and 100 μg ml^−1 nOVA and dOVA were tested, respectively. TEM images of nOVA and dOVA were taken to check for the presence of large aggregates. […] MSA (#126674, Calbiochem) was dissolved in 8 M urea, 100 mM Tris-HCl pH 8.2, at 10 mg ml^−1 final concentration. Dithiothreitol (DTT) was added to a final concentration of 10 mM. Air was replaced by N2 and the solution was incubated for 2 h at room temperature. Then, the solution was transferred to ice and iodoacetamide was added from a 1 M stock to a final concentration of 20 mM. […] Alkyl-MSA was dialyzed against H2O before use. […] In the ThT-fluorescence assay 25 μg ml^−1 nMSA and alkyl-MSA were tested, and in the Plg-activation assay 100 μg ml^−1 was tested. The presence of aggregates or fibrils was analyzed using TEM. […]
as §2

tPA [2] = molecular target: T1, tPA (Homo sapiens, UniProt P00750); test: Plasminogen-activation assay (tPA-mediated Plg to Pls, S-2251); format: biochemical; settings: stored at 4° C.; GH 500 μg ml^−1, zinc-insulin diluted tenfold
T1 construct: purchased Boehringer-Ingelheim (Actilyse, Alteplase)
Protocol: Plasmin (Pls) activity was assayed as described^7. Peptides and proteins that were tested for their stimulatory ability were regularly used at 100 μg ml^−1. […] Chromogenic substrate S-2251 (Chromogenix, Instrumentation Laboratory SpA, Milano, Italy) was used to measure Pls activity. Conversion of zymogen factor XII (#233490, Calbiochem, EMD Biosciences, Inc., San Diego, Calif.) to proteolytically active factor XII (factor XIIa) was assayed by measurement of the conversion of chromogenic substrate Chromozym-PK (Roche Diagnostics, Almere, The Netherlands) by kallikrein. Chromozym-PK was used at a concentration of 0.3 mM. Factor XII, human plasma prekallikrein (#529583, Calbiochem) and human plasma cofactor high-molecular weight kininogen (#422686, Calbiochem) were used at concentrations of 1 μg ml^−1. […] Assays were performed using microtiter plates (Costar, Cambridge, Mass., USA). Peptides and proteins were tested for their ability to activate factor XII. 150 μg ml^−1 kaolin, an established activator of factor XII was used as positive control and solvent (H2O) as negative control. The conversion of Chromozym-PK was recorded kinetically at 37° C. for at least 60 minutes. Assays were done in duplicate. […] Alternatively, chromogenic substrate S-2222 (Chromogenix) was used to follow the activity of factor XII itself. With S-2222, activation of factor XII in plasma was measured, using 60% v/v plasma, diluted with substrate and H2O with or without potential cofactor. Furthermore, auto-activation of factor XII was measured by incubating 53 μg ml^−1 purified factor XII in 50 mM Tris-HCl buffer pH 7.5 with 1 mM EDTA and 0.001% v/v Triton-X100, with S-2222 and H2O with or without potential cofactor.
as §1
Purification of β2-glycoprotein I (β2GPI) was performed according to established methods^11,12. Recombinant human β2GPI was made using insect cells and purified as described^11. Plasma derived β2GPI as used in a factor XII ELISA, the chromogenic Plg-activation assay and in the anti-phospholipid syndrome antibody ELISA (see below), was purified from fresh human plasma as described^12.
To prepare structurally altered ovalbumin (OVA) with amyloid cross-β structure conformation, purified OVA (Sigma, A-7641, lot 071k7094) was heated to 85° C. One mg ml^−1 OVA in 67 mM NaPi buffer pH 7.0, 100 mM NaCl, was heated for two cycles in PCR cups in a PTC-200 thermal cycler (MJ Research, Inc., Waltham, Mass., USA). In each cycle, OVA was heated from 30 to 85° C. at a rate of 5° C./min. Native OVA (nOVA) and heat-denatured OVA (dOVA) were tested in the ThT fluorescence assay and in the Plg-activation assay. In the fluorescence assay and in the Plg-activation assay, 25 and 100 μg ml^−1 nOVA and dOVA were tested, respectively. TEM images of nOVA and dOVA were taken to check for the presence of large aggregates. […] MSA (#126674, Calbiochem) was dissolved in 8 M urea, 100 mM Tris-HCl pH 8.2, at 10 mg ml^−1 final concentration.

tPA [3] = molecular target: T1, tPA; test: tPA ELISA with coated protein therapeutics; format: binding; settings: 5 μg ml^−1 coated, stored at 4° C.
Protocol: as §1

tPA [4] = molecular target: T1, tPA; test: tPA binding assay with immobilized biopharmaceuticals in an ELISA; settings: therapeutic coated 1:10; one-site binding fit
Protocol: Nunc Immobilizer plates (Nalge Nunc, #436013, Rochester, N.Y., USA) were coated with 50 μL containing 5 μg/mL of sample protein (unless indicated otherwise) in 100 mM NaHCO3, pH 9.6, 0.05% m/v NaN3 for 1 hour at room temperature. Plates were washed twice with Tris buffered saline pH 7.2 containing 0.1% Tween20 (TBST) and blocked with PBS containing 1% Tween20 for 1 hour at room temperature. […] Plates were washed five times with TBST and incubated with peroxidase labeled anti-mouse immunoglobulins (RAMPO; DAKOCytomation, Glostrup, Denmark) diluted 1:3000 in PBST for 30 minutes at room temperature. Plates were washed five times with PBS 0.1% Tween20, and stained with 100 μL/well of tetramethyl-benzidine (TMB) substrate (Biosource Europe, Nivelles, Belgium). The reaction was terminated with 50 μL/well of 2 M H2SO4 and substrate conversion was read at 450 nm on a Spectramax340 microplate reader. Curves were fitted with a one-site binding model (GraphPad Prism version 4.02 for Windows, Graphpad Software, CA, USA) from which Kd and Bmax were determined.
as §2

tPA [5] = molecular target: T1, tPA; test: tPA ELISA with proteins pre-incubated with DXS500k; format: binding
factor XII = molecular target: T2, factor XII (Homo sapiens, UniProt P00748); test: Factor XII auto-activation assay with substrate S-2222; format: biochemical; settings: purified factor XII, 100 μg ml^−1 FP13 K157G, 10 μg ml^−1 Aβ(1-40) E22Q, 10 μg ml^−1 Hb-AGE, DXS500k 1 μg ml^−1 as comparator
T2 construct: purchased Calbiochem, EMD Biosciences #233490
T2 sequence (P00748 20-615): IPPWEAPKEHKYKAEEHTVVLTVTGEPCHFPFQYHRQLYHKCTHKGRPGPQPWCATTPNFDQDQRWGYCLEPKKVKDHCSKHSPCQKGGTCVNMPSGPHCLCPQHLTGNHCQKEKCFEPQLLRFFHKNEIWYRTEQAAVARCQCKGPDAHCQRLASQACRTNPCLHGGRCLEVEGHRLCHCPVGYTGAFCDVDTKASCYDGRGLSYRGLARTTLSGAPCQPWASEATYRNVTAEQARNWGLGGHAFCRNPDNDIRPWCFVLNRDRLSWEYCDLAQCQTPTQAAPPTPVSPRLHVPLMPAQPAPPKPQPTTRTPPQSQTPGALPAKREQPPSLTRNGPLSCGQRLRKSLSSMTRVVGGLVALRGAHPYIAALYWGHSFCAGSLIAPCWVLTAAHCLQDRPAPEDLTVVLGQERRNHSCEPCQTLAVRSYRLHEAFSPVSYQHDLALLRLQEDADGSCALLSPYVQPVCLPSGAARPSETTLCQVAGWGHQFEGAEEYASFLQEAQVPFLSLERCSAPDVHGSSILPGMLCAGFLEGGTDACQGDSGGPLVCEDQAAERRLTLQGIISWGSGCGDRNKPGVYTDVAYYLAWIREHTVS
Protocol: Plasmin (Pls) activity was assayed as described^7. Peptides and proteins that were tested for their stimulatory ability were regularly used at 100 μg ml^−1. […] Chromogenic substrate S-2251 (Chromogenix, Instrumentation Laboratory SpA, Milano, Italy) was used to measure Pls activity. Conversion of zymogen factor XII (#233490, Calbiochem, EMD Biosciences, Inc., San Diego, Calif.) to proteolytically active factor XII (factor XIIa) was assayed by measurement of the conversion of chromogenic substrate Chromozym-PK (Roche Diagnostics, Almere, The Netherlands) by kallikrein. Chromozym-PK was used at a concentration of 0.3 mM. Factor XII, human plasma prekallikrein (#529583, Calbiochem) and human plasma cofactor high-molecular weight kininogen (#422686, Calbiochem) were used at concentrations of 1 μg ml^−1. […] Assays were performed using microtiter plates (Costar, Cambridge, Mass., USA). […] The conversion of Chromozym-PK was recorded kinetically at 37° C. for at least 60 minutes. […] With S-2222, activation of factor XII in plasma was measured, using 60% v/v plasma, diluted with substrate and H2O with or without potential cofactor. Furthermore, auto-activation of factor XII was measured by incubating 53 μg ml^−1 purified factor XII in 50 mM Tris-HCl buffer pH 7.5 with 1 mM EDTA and 0.001% v/v Triton-X100, with S-2222 and H2O with or without potential cofactor.

[6] = marketed biopharmaceutical within expiry limits, five μL tested

T1 sequence (P00750 36-562): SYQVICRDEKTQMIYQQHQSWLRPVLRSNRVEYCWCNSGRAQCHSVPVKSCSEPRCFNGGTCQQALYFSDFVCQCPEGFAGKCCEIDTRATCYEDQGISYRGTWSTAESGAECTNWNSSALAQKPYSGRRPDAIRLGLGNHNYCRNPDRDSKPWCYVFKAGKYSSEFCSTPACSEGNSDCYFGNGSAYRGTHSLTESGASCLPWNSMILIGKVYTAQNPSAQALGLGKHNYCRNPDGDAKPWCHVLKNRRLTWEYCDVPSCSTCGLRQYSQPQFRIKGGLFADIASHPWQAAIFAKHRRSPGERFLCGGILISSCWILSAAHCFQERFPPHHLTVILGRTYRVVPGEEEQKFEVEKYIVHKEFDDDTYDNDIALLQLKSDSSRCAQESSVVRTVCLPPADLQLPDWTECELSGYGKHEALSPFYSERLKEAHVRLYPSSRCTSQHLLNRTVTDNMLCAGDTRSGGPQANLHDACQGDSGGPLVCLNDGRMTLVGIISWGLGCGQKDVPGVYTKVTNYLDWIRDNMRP

Q: Which “TNFα RNA expression when compared to LPS” value (U937 monocytes) does the source give for “Hb-AGE: human haemoglobin incubated 32 weeks at 37° C. with glucose-6-phosphate” here?
A: approximately 30%

Q: What does the source list for “Somatropin: human growth hormone (GH) (Genotropin, Pharmacia)”?
A: Fluorescence (a.u. +/− SD) CR (Congo red fluorescence; [6]): 429 +/− 2 a.u.; enhancement of Congo red fluorescence (Congo red fluorescence; therapeutics stored at 4° C.): to some extent; Fluorescence (a.u. +/− SD) ThT [1, 6]: 1317 +/− 10 a.u.; enhancement of ThT fluorescence ([1]; therapeutics stored at 4° C.): enhance fluorescence of ThT; tPA activation by protein therapeutics (tPA [2]): induced tPA activation; binding of tPA to immobilized therapeutic (tPA [3]): binding of tPA was established; tPA Binding Bmax (OD450 nm) (tPA [4]): 0.9369 OD450 nm

Q: With “factor XII: zymogen factor XII (Calbiochem), here pre-incubated with DXS500k” as the substance, how does the “tPA binding to protein pre-incubated overnight with DXS500k” value (tPA [5]) read?
A: binds specifically

Q: With “freshly dissolved FP13 K157G: FP13 K157G peptide freshly dissolved, not aggregated (KRLEVDIDIGIRS)” as the substance, how does the “potency to induce factor XII auto-activation” value (factor XII) read?
A: did not or hardly auto-activate factor XII
